{"source": "patent US20070116750A1", "about": "“Compositions for disrupting and inhibiting reconstitution of wound biofilm” (priority 2005, published 2007)", "molecules": {"B1": {"name": "lactoferrin: iron-binding glycoprotein, 75,000-80,000 Daltons; in Examples 2-11 applied as Bioferrin with xylitol in gel (protein, UniProt P24627 20-708, looked up)", "Lactotransferrin": "APRKNVRWCTISQPEWFKCRRWQWRMKKLGAPSITCVRRAFALECIRAIAEKKADAVTLDGGMVFEAGRDPYKLRPVAAEIYGTKESPQTHYYAVAVVKKGSNFQLDQLQGRKSCHTGLGRSAGWIIPMGILRPYLSWTESLEPLQGAVAKFFSASCVPCIDRQAYPNLCQLCKGEGENQCACSSREPYFGYSGAFKCLQDGAGDVAFVKETTVFENLPEKADRDQYELLCLNNSRAPVDAFKECHLAQVPSHAVVARSVDGKEDLIWKLLSKAQEKFGKNKSRSFQLFGSPPGQRDLLFKDSALGFLRIPSKVDSALYLGSRYLTTLKNLRETAEEVKARYTRVVWCAVGPEEQKKCQQWSQQSGQNVTCATASTTDDCIVLVLKGEADALNLDGGYIYTAGKCGLVPVLAENRKSSKHSSLDCVLRPTEGYLAVAVVKKANEGLTWNSLKDKKSCHTAVDRTAGWNIPMGLIVNQTGSCAFDEFFSQSCAPGADPKSRLCALCAGDDQGLDKCVPNSKEKYYGYTGAFRCLAEDVGDVAFVKNDTVWENTNGESTADWAKNLNREDFRLLCLDGTRKPVTEAQSCHLAVAPNHAVVSRSDRAAHVKQVLLHQQALFGKNGKNCPDKFCLFKSETKNLLFNDNTECLAKLGGRPTYEEYLGTEYVTAIANLKKCSTSPLLEACAFLTR"}}, "key": {"Streptococcus mutans": {"system": "Streptococcus mutans", "conditions": "lactoferrin and iron depletion; cited from earlier work"}, "oral ulcers": {"system": "oral ulcers", "conditions": "hamsters; cited from earlier work"}, "P. aeruginosa": {"system": "P. aeruginosa", "conditions": "in vitro; cited from earlier work"}, "chronic wound biofilm": {"system": "chronic wound biofilm", "assay": "Topical treatment of patients' chronic/non-healing wounds in the clinic (case reports and clinical experience)", "type": "in vivo, human", "conditions": "for wound healing outcome: topical application with debridement and other wound care", "source_text": "The composition is preferably applied following wound debridement. Although biofilm bacteria cannot be completely eradicated from the wound area by debridement, decreasing biofilm mass and providing increased exposure of the debrided tissue and remaining biofilm bacteria to the inventive compositions increases wound healing. […] It is therefore of benefit to debride the slough from the wound as completely as possible. Debridement can be performed by surgical, mechanical, autolytic, enzymatic, or a combination of means known to those of skill in the art of wound care. Furthermore, standard gauze dressings to pack or cover the wound will preferably be avoided, since those dressings may enhance biofilm formation or reconstitution in the wound. If used, such dressings may, however, be coated or impregnated with a composition of the present invention to decrease the biofilm-enhancing properties of a gauze dressing.\nTopical wound care compositions may comprise about 2 to about 200 mg of MDPP or MDPP-A per cubic centimeter of total composition. In one embodiment, a composition comprises about 20 to about 200 mg of MDPP or MDPP-A, provided as Bioferrino®1000 or Bioferrin®2000, per cubic centimeter of total composition and about 1 to about 50, or in some embodiments about 5 to about 20, percent (w/v) xylitol. In one embodiment, this composition may be admixed into a methylcellulose/gelatin gel. This composition can be applied, in an amount of about ½ to about 5 cc of protein isolate/xylitol composition to each one square centimeter of wound area, to a freshly debrided chronic wound after the slough has been removed.\nXylitol (one-, two-, three-, four-, and five-xypentane hydro from Spectrum Chemical) comprised the second active ingredient, and was present at a concentration of 5% by weight of the mixture. The base gel of the composition comprised methylcellulose (0.023 gm/cc), gelatin (0.013 gm/cc) and sterile water."}, "[1]": {"conditions": "individual patient case reports"}}, "note": "Entries after “also recorded” stand apart in the source; their conditions may differ.", "data": [{"molecule": "B1", "values": [{"measurement": "effect on biofilm formation", "setting": "Streptococcus mutans", "value": "stimulate biofilm formation"}, {"measurement": "efficacy for treating oral ulcers", "setting": "oral ulcers", "value": "not effective"}, {"measurement": "effect on biofilm formation", "setting": "P. aeruginosa", "value": "block biofilm formation"}, {"measurement": "inhibition of biofilm reconstitution / response of wounds, clinical experience", "setting": "chronic wound biofilm; chronic wounds after debridement, comparative statements", "value": "inhibits reconstitution of an existing biofilm in a chronic wound"}, {"measurement": "slough (biofilm) in the wound bed during therapy", "setting": "chronic wound biofilm; [1]", "value": "no evidence of slough"}, {"measurement": "wound healing outcome", "setting": "chronic wound biofilm; [1]", "value": "the wound healed; also recorded: almost completely healed"}, {"measurement": "wound healing outcome", "setting": "chronic wound biofilm; individual patient case reports, listed as Lactoferrin", "value": "complete healing of their wound"}, {"measurement": "time to complete healing / closure of wound", "setting": "chronic wound biofilm; patients with venous leg wounds", "value": 5, "unit": "weeks"}]}]}
